Results published in the supplement of paper PMC12042874.
± gives the uncertainty stated by the source.

Experiment: amyloid nucleation score (Sup35N fusion, yeast selection) (log enrichment); library NNK3; higher = more nucleation; inactive = no reads after selection
How it was run: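 DiMSum was used to calculate nucleation scores as log enrichment of output over input reads, centred on the mode score of non-aggregating sequences. Sequences with fewer than 100 input reads were not scored. Input and output came from Illumina sequencing of plasmid inserts in psi-negative yeast expressing peptides of 20 random codons fused to Sup35N, induced 24 hours with 100 μM copper sulfate and then grown 7 days at 30°C on medium lacking adenine and uracil.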

Row | Substance | amyloid nucleation score
1 | VFYSLMILSLLNSRRDGLHQ | 0.429 ± 0.48
2 | VGAFLKLNRNLMTFSMARNY | inactive
3 | VGASQRVYSLLST | inactive
4 | VGDHDPSRFCQDNLCLSRCL | inactive
5 | VGHIRVLDEDNNYMSFYDMR | inactive
6 | VGKFSHACLRIN | inactive
7 | VGKWGFQEGST | inactive
8 | VGLNVSWAYIMVAEYVVYMS | -0.698 ± 0.53
9 | VGNWYGKTIGMSSLEFLMSR | inactive
10 | VGPRGGNVSEGPPRVWVNGC | inactive
11 | VGQLFTSSSSVVSSGCMIVD | inactive
12 | VGQWYGFMFWLLLLIIQS | inactive
13 | VGSLIGMNYGF | inactive
14 | VGSRAGYMRQLSVSACTRVL | inactive
15 | VGTGICKRPGYRAGSV | inactive
16 | VGTPCSYSWLAAPV | inactive
17 | VGYLCFLFQTDSFI | inactive
18 | VHCHV | -0.536 ± 0.93
19 | VHDRSLHLVGY | -0.841 ± 1.2
20 | VHGYAAFLRRWWEQMNFSVR | inactive
21 | VHHEILHHGLFGEMSCVVEC | inactive
22 | VHKFDSL | inactive
23 | VHSCEMSSPPTILKVKLVYL | inactive
24 | VHVLVVWYFAFTCVCRVPFG | 0.228 ± 0.85
25 | VHVSEGPRWRFHSRRDSSVV | inactive
26 | VIALVSGEYSWFRILCTPFY | inactive
27 | VIFKKGLRLFTSSCDWSISD | inactive

Row | Substance | amyloid nucleation score
28 | VIHMH | inactive
29 | VIIICQLHCYTKTMIIRHRC | 0.118 ± 0.3
30 | VIKDYSQCMSWHGVESSWRL | -0.31 ± 0.68
31 | VIMVSSRDQADLCESVMQM | inactive
32 | VINCSAHTEFRGLNFRVTCT | inactive
33 | VINVYTAINGSWALN | 2.17 ± 0.059
34 | VIRDQQIIVKCCNLVSICGI | 1.32 ± 0.17
35 | VIRLLVIAFRDHLNEVMFHK | inactive
36 | VIRRYCAGARHYSVLEIMRE | inactive
37 | VISYYIATGGFIDVFYCCKF | 2.15 ± 0.085
38 | VIVASVVLKW | inactive
39 | VIVSREKSITRSNVIEWWNL | 1.82 ± 0.11
40 | VIVVREYVVWKNISMIVDYL | -0.019 ± 0.24
41 | VIVYQKSMLHLGCSLGIAFW | inactive
42 | VIWAVPAH | inactive
43 | VKCQRRH | inactive
44 | VKEPPTCVTCSAHSIRSGYS | inactive
45 | VKFSTRNFNKVQLHVFTTCM | inactive
46 | VKFYNLRRCVIDLMITLSRM | inactive
47 | VKGIEVNRLMFEERISGCYV | inactive
48 | VKKDMRRLLMFRIGGKSFGG | inactive
49 | VKKSDWAVGLVDSDQCVHFD | inactive
50 | VKRGFEWFCSMTHFNTSCIR | inactive
51 | VKTINSWIRWVTLRILQVVS | inactive
52 | VKTSQRSVTL | inactive
53 | VLADYGTM | inactive
54 | VLCQSHACRSHAGLCSSNKI | inactive

Row | Substance | amyloid nucleation score
55 | VLFCRFSSWV | 0.739 ± 0.26
56 | VLFRKCQCVRSHLI | inactive
57 | VLGLFSTYDSFVCFN | inactive
58 | VLGPGIIRTEQVLTVVRTMA | inactive
59 | VLGPLQLRRIAHETGRCNAM | inactive
60 | VLHGVL | inactive
61 | VLIITLMYMYATFLSFYKPQ | 2.59 ± 0.085
62 | VLIKQECSQRFFDSNLNWHF | 0.688 ± 0.33
63 | VLKARMY | inactive
64 | VLLMLLTV | inactive
65 | VLLNLSSFMLSTFTLRMS | inactive
66 | VLLQKGTETECGLAIVQLKW | inactive
67 | VLLVF | inactive
68 | VLMECSNFAVEQTARLVPVR | inactive
69 | VLMGMRCEREFPE | inactive
70 | VLPVHNKVNITLTVSAPWLW | inactive
71 | VLRYWRRLGQYTAGSYPEVL | inactive
72 | VLSSWTIK | inactive
73 | VLTIRRFLRVSHFRNQWFPV | inactive
74 | VLVCYC | inactive
75 | VLVFSLISFLSWDWCSYLV | inactive
76 | VMCGNMWVYVKSLDT | 0.96 ± 0.11
77 | VMGVPST | inactive
78 | VMHGFVGAAKSNWKNPWHRA | inactive
79 | VMLFY | 0.845 ± 0.14
